We go through four molecules from PMC1523230, “Structural Organization of the 19S Proteasome Lid: Insights from MS of Intact Complexes” (PLoS Biology, 2006).

The labels stand for the following.
B1: Rpn11^H12 (natural protein, S. cerevisiae, UniProt P43588 1-306, looked up)
chain: MERLQRLMMNSKVGSADTGRDDTKETVYISSIALLKMLKHGRAGVPMEVMGLMLGEFVDDYTVNVVDVFAMPQSGTGVSVEAVDDVFQAKMMDMLKQTGRDQMVVGWYHSHPGFGCWLSSVDVNTQKSFEQLNSRAVAVVVDPIQSVKGKVVIDAFRLIDTGALINNLEPRQTTSNTGLLNKANIQALIHGLNRHYYSLNIDYHKTAKETKMLMNLHKEQWQSGLKMYDYEEKEESNLAATKSMVKIAEQYSKRIEEEKELTEEELKTRYVGRQDPKKHLSETADETLENNIVSVLTAGVNSVAIK
notes: Rpn11, subunit of the 19S proteasome lid, S. cerevisiae; tagging cassette of plasmid pT2H12 integrated directly before the stop codon of RPN11; also called modified Rpn11; source: S. cerevisiae strain RJD2909 (tag integrated at the chromosomal RPN11 locus); in lysate, then purified as the 19S lid (Ni-NTA, Sephacryl S-400 gel filtration); not shown: His12, C-terminal, kept
B2: Sem1 (natural protein, S. cerevisiae, UniProt O94742 2-89, looked up)
chain: STDVAAAQAQSKIDLTKKKNEEINKKSLEEDDEFEDFPIDTWANGETIKSNAVTQTNIWEENWDDVEVDDDFTNELKAELDRYKRENQ
modifications: N-terminal amino group acetylated (initiator methionine removed)
notes: Sem1, subunit of the 19S proteasome lid, S. cerevisiae (10 kDa); the initiator methionine is removed; source: endogenous, S. cerevisiae strain RJD2909; in lysate, then co-purified with Rpn11^H12 as the 19S lid (Ni-NTA, Sephacryl S-400 gel filtration)
B3: Rpn8 (natural protein, S. cerevisiae, UniProt Q08723 1-338, looked up)
chain: MSLQHEKVTIAPLVLLSALDHYERTQTKENKRCVGVILGDANSSTIRVTNSFALPFEEDEKNSDVWFLDHNYIENMNEMCKKINAKEKLIGWYHSGPKLRASDLKINELFKKYTQNNPLLLIVDVKQQGVGLPTDAYVAIEQVKDDGTSTEKTFLHLPCTIEAEEAEEIGVEHLLRDVRDQAAGGLSIRLTNQLKSLKGLQSKLKDVVEYLDKVINKELPINHTILGKLQDVFNLLPNLGTPDDDEIDVENHDRINISNNLQKALTVKTNDELMVIYISNLVRSIIAFDDLIENKIQNKKIQEQRVKDKQSKVSDDSESESGDKEATAPLIQRKNKKN
notes: Rpn8, subunit of the 19S proteasome lid, S. cerevisiae; source: endogenous, S. cerevisiae strain RJD2909; in lysate, then co-purified with Rpn11^H12 as the 19S lid (Ni-NTA, Sephacryl S-400 gel filtration)
B4: Rpn5 (natural protein, S. cerevisiae, UniProt Q12250 1-445, looked up)
chain: MSRDAPIKADKDYSQILKEEFPKIDSLAQNDCNSALDQLLVLEKKTRQASDLASSKEVLAKIVDLLASRNKWDDLNEQLTLLSKKHGQLKLSIQYMIQKVMEYLKSSKSLDLNTRISVIETIRVVTENKIFVEVERARVTKDLVEIKKEEGKIDEAADILCELQVETYGSMEMSEKIQFILEQMELSILKGDYSQATVLSRKILKKTFKNPKYESLKLEYYNLLVKISLHKREYLEVAQYLQEIYQTDAIKSDEAKWKPVLSHIVYFLVLSPYGNLQNDLIHKIQNDNNLKKLESQESLVKLFTTNELMRWPIVQKTYEPVLNEDDLAFGGEANKHHWEDLQKRVIEHNLRVISEYYSRITLLRLNELLDLTESQTETYISDLVNQGIIYAKVNRPAKIVNFEKPKNSSQLLNEWSHNVDELLEHIETIGHLITKEEIMHGLQAK
notes: Rpn5, subunit of the 19S proteasome lid, S. cerevisiae; source: endogenous, S. cerevisiae strain RJD2909; in lysate, then co-purified with Rpn11^H12 as the 19S lid (Ni-NTA, Sephacryl S-400 gel filtration)

In experiment [1] the target is T1, Rpn7 (S. cerevisiae, UniProt Q06103 1-429).
T1 construct: Rpn7, subunit of the 19S proteasome lid, S. cerevisiae; source: endogenous, S. cerevisiae strain RJD2909; in lysate, then co-purified with Rpn11^H12 as the 19S lid (Ni-NTA, Sephacryl S-400 gel filtration)
T1 sequence (looked up): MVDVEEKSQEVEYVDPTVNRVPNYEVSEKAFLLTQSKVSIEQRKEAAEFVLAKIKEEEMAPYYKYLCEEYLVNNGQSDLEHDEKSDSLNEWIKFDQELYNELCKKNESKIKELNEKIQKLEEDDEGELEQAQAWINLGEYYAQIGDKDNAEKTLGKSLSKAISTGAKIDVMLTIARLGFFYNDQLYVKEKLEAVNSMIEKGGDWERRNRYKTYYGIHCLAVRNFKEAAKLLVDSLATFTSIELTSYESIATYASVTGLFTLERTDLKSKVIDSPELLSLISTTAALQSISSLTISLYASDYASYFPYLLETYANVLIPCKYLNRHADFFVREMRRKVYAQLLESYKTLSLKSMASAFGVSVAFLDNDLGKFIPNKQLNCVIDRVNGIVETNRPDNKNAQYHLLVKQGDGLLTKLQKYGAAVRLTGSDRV
The experiment is described as follows: affinity purification with mass spectrometry; Rpn11^H12 held on Ni-NTA from yeast lysate, gel filtration; subunits identified by MALDI-TOF/TOF peptide mapping and database search. The conditions noted are these: partners not purified.

In experiment [2] the target is B3. Described as above. The conditions noted are these: partners not purified.
Experiment [3] deals with T2, Rpn3 (S. cerevisiae, UniProt P40016 17-523).
T2 construct: Rpn3, subunit of the 19S proteasome lid, S. cerevisiae; from the measured mass the first 16 residues are truncated; source: endogenous, S. cerevisiae strain RJD2909; in lysate, then co-purified with Rpn11^H12 as the 19S lid (Ni-NTA, Sephacryl S-400 gel filtration)
T2 sequence (looked up): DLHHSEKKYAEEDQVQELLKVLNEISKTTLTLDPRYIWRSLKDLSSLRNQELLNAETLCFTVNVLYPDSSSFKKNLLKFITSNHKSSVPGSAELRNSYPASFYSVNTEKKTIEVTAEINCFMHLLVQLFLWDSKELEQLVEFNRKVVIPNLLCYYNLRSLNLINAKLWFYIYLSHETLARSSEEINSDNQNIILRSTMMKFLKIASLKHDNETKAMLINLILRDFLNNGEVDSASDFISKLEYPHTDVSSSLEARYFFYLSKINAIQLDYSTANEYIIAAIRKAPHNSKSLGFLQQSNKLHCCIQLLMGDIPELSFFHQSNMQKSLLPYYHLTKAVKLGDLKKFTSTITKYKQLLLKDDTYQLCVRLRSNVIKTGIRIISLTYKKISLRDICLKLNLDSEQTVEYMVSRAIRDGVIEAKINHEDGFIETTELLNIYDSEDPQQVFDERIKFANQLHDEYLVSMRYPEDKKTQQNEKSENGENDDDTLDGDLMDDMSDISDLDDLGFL
As to the kind of experiment: native MS; intact endogenous 19S lid purified through Rpn11^H12, buffer exchanged into 1 M ammonium acetate, nano-electrospray on a high-mass Q-TOF; MS/MS of the 47+ charge state at 100 and 120 V. As to conditions: both partners purified.

Experiment [4] has as its target B4. Described as above. The conditions noted are these: both partners purified.
In experiment [5] the target is B1. As to the kind of experiment: affinity purification with mass spectrometry; Rpn11^H12 held on Ni-NTA from yeast lysate, gel filtration; subunits identified by MALDI-TOF/TOF peptide mapping and database search. The conditions noted are these: partners not purified. Background: In gel filtration, larger molecules generally elute earlier.
The target in experiment [6] is T2, Rpn3. As to the kind of experiment: cross-linking; purified lid 4.8 uM, BS3 at a ratio of 1:50, 2 h on ice, 200 mM NaCl, 50 mM HEPES pH 7.5; bands A-F of a Bis-Tris 4-12% denaturing gel digested with trypsin and identified by MALDI-TOF/TOF MS and MS/MS. As to conditions: both partners purified.
Experiment [7] concerns the target T1, Rpn7. Described as above. As to conditions: both partners purified.
Experiment [8] addresses T3, Rpn6 (S. cerevisiae, UniProt Q12377 1-434).
T3 construct: Rpn6, subunit of the 19S proteasome lid, S. cerevisiae; Present in substoichiometric amounts: a part of the purified lid complexes lacks Rpn6; also called Rnp6; source: endogenous, S. cerevisiae strain RJD2909; in lysate, then co-purified with Rpn11^H12 as the 19S lid (Ni-NTA, Sephacryl S-400 gel filtration)
T3 sequence (looked up): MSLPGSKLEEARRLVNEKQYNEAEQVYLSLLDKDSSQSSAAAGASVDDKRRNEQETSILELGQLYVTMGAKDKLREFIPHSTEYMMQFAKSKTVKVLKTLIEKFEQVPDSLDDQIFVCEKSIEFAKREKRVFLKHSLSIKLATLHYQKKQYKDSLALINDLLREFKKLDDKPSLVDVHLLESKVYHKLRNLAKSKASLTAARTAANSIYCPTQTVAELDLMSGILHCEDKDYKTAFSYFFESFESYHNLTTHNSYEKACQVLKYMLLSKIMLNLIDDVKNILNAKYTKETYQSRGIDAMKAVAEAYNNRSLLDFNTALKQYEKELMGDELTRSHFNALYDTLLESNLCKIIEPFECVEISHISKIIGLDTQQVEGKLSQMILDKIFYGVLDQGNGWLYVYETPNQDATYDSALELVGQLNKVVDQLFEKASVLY
The experiment is described as follows: native MS; 185-kDa subcomplex present in the solution of the purified lid, 1 M ammonium acetate; 34+ charge state isolated, MS/MS with argon at 130 V. As to conditions: both partners purified.

The target of experiment [9] is T4, Rpn9 (S. cerevisiae, UniProt Q04062 1-393).
T4 construct: Rpn9, subunit of the 19S proteasome lid, S. cerevisiae; source: endogenous, S. cerevisiae strain RJD2909; in lysate, then co-purified with Rpn11^H12 as the 19S lid (Ni-NTA, Sephacryl S-400 gel filtration)
T4 sequence (looked up): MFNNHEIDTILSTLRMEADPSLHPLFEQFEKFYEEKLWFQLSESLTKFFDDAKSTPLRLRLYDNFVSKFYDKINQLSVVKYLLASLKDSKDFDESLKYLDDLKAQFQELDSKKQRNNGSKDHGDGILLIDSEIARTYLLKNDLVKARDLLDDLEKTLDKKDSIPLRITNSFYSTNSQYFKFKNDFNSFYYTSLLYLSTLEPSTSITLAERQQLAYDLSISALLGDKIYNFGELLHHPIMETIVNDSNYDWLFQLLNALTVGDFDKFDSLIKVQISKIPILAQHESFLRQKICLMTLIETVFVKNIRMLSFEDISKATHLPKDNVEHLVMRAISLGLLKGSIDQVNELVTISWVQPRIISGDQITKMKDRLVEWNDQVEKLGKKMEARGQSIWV
The description is as above. The conditions noted are these: both partners purified.

For experiment [10], the target named is B4. The experiment is described as follows: cross-linking; purified lid 4.8 uM, BS3 at a ratio of 1:50, 2 h on ice, 200 mM NaCl, 50 mM HEPES pH 7.5; bands A-F of a Bis-Tris 4-12% denaturing gel digested with trypsin and identified by MALDI-TOF/TOF MS and MS/MS. The conditions noted are these: both partners purified.

Regarding B1, the binding result in experiment [1], in experiment [2], in [3] and in experiment [4] was “binds” each time.
Take B2: the binding result in experiment [5], in experiment [6] and in [7] was “binds” in each case.
Turning to B3, the binding result in experiment [8], in experiment [9] and in experiment [10] was “binds” in each case.
In the case of B4, in experiment [6], the binding result was “binds”.
